T1: Human CD40 ligand (BioLegend) (human, UniProt P29965 113-261, limits assumed)
T1 construct: Coated on the ELISA plate at 2 ug/ml; also called CD154; gp39
T1 sequence (looked up): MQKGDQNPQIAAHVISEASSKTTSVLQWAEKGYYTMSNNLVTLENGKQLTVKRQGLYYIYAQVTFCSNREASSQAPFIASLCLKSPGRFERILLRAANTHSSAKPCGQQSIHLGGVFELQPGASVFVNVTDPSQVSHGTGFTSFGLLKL


Target: T1, Human CD40 ligand (BioLegend)
Test: ELISA on plate-immobilized human CD40 ligand (2 ug/ml coat); serial dilutions of HEK293 transfection supernatant; detection with HRP goat anti-human IgG Fc; x axis is fold dilution, no concentration given

binding result | Binder
binds | hVK3LP-[hCD40EC E64Y-K81T-P85Y]-(g4s)4-[SSShinge-P238S Fc]-NGS-[PON1 Q192K] (Fc fusion, Tested as unpurified HEK293 transfection supernatant; also called CD40TM-Fc-P1-K; CD40-Fc-PON1 fusion protein) EPPTACREKQYLINSQCCSLCQPGQKLVSDCTEFTETECLPCGYSEFLDTWNRETHCHQHTYCDYNLGLRVQQKGTSETDTICTCEEGWHCTSEACESCVLHRSCSPGFGVKQIATGVSDTICEPCPVGFFSNVSSAFEKCHPWTSCETKDLVVQQAGTNKTDVVCGPDLSGGGGSGGGGSGGGGSGGGGSTGLEPKSSDKTHTSPPSPAPELLGGSSVFLFPPKPKDTLMISRTPEVTCVVVDVSHEDPEVKFNWYVDGVEVHNAKTKPREEQYNSTYRVVSVLTVLHQDWLNGKEYKCKVSNKALPASIEKTISKAKGQPREPQVYTLPPSRDELTKNQVSLTCLVKGFYPSDIAVEWESNGQPENNYKTTPPVLDSDGSFFLYSKLTVDKSRWQQGNVFSCSVMHEALHNHYTQKSLSLSPGKVDGASSPVNVSSPSVQDILFRNHQSSYQTRLNALREVQPVELPNCNLVKGIETGSEDLEILPNGLAFISSGLKYPGIKSFNPNSPGKILLMDLNEEDPTVLELGITGSKFDVSSFNPHGISTFTDEDNAMYLLVVNHPDAKSTVELFKFQEEEKSLLHLKTIRHKLLPNLNDIVAVGPEHFYGTNDHYFLDPYLKSWEMYLGLAWSYVVYYSPSEVRVVAEGFDFANGINISPDGKYVYIAELLAHKIHVYEKHANWTLTPLKSLDFNTLVDNISVDPETGDLWVGCHPNGMKIFFYDSENPPASEVLRIQNILTEEPKVTQVYAENGTVLQGSTVASVYKGKLLIGTVFHKALYCEL
binds | [hCD40 EC]-(g4s)4-[SSShinge-P238S Fc] (wild-type CD40-Fc) (Fc fusion, Tested as HEK293 transfection supernatant; also called CD40WT-Fc) EPPTACREKQYLINSQCCSLCQPGQKLVSDCTEFTETECLPCGESEFLDTWNRETHCHQHKYCDPNLGLRVQQKGTSETDTICTCEEGWHCTSEACESCVLHRSCSPGFGVKQIATGVSDTICEPCPVGFFSNVSSAFEKCHPWTSCETKDLVVQQAGTNKTDVVCGPDLSGGGGSGGGGSGGGGSGGGGSTGLEPKSSDKTHTSPPSPAPELLGGSSVFLFPPKPKDTLMISRTPEVTCVVVDVSHEDPEVKFNWYVDGVEVHNAKTKPREEQYNSTYRVVSVLTVLHQDWLNGKEYKCKVSNKALPASIEKTISKAKGQPREPQVYTLPPSRDELTKNQVSLTCLVKGFYPSDIAVEWESNGQPENNYKTTPPVLDSDGSFFLYSKLTVDKSRWQQGNVFSCSVMHEALHNHYTQKSLSLSPGK

Source: patent US20250145977A1 (THERIPION, published 2025)
